Among the data in publication PMC11519390 are response (% bound input) values, retold here.

To fix the notation:
B1: HA-tagged wildtype Drosophila CYRI [Drosophila] / GST-tagged constitutively active Rac1 [Drosophila] (parent)
chain 1: MGKLLSLLSRDDSNCCAAKSYDVFLDFENAAPTETERAVYDEVERVLRESEVVLDEIQIYRGAGKEIREAIADPSPEVTAKAWAAVLPLVNKLKRCYEHSMELDKIVPKLLGQLVGGKLNPTQHLETQQALVKQLAEILEFVLKFDEYKMKTPAIQNDFSYYRRIVSRQRVDSTENMLVSTELANRMSLFYAHATPMLKVLSEATSKFVNDNADDVQNTTETLGTMAKVCLRMLENPKLLQQIEREDTKMLVLRVMVGLVILYDHVHPEGAFVRGAHVDVKGCVRLLQAQPAIKAEPLLNALRYTTKHLNGENTPKNIQRLLAA
chain 2: not shown

This assay covers variants of B1. The assay can be described thus: GST pull-down, western blot quantification. The settings on record: with GST-tagged constitutively active Rac1 Q61L [Drosophila]; Signals normalized to loaded input (1% of the starting lysate material); three independent experiments; read off a plot.
As to chain 1 R163D R164D, the response (% bound input) is 0.015.
